Source: article doi:10.1101/2020.01.16.909523 (bioRxiv, 2020)

Biological target: PE5mt-PPE4mt heterodimer (His6 tag cleaved) (Mycobacterium tuberculosis, UniProt L7N695 1-102; P9WI43 1-180)
Test: SEC-MALS

Chain of PE5mt-PPE4mt heterodimer (His6 tag cleaved) (L7N695 whole entry, chain 1 of 2): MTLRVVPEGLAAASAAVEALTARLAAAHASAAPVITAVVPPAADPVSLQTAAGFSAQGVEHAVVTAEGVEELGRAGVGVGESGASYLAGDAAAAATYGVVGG
Chain of PE5mt-PPE4mt heterodimer (His6 tag cleaved) (P9WI43 1-180, chain 2 of 2): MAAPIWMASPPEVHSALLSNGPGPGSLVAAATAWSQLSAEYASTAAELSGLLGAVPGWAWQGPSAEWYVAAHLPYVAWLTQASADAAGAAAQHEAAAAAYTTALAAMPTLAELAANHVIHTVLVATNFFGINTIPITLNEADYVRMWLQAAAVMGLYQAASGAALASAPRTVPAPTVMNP

B1: EspG3mm (natural protein)
chain: MESMPNAVELTVENAWFIAEMVGAGTFPWVLAITTPYSDEAQRSAFFARQRDELTQLGLLSSDGVVNPAVAEWIKVVCFPERWLDLRYVGPGTGNGGEDLLRGIVAQSAGIMGKAGKAHPSFNTVVALRNAQLVTFTAMDIDDPRALVPVLGVGLSARPPARFEEFSMPMRVGARADERLRSGESLDEVLDYLGIPVSARPVVQAVFSGPRSYVEIVAGCNRDGEHTTTDVGLSIVDTTAGRVLVSPSRAFDGEWVSTFSAGTPFATAVAIDQLIANLPDGQWFPGQRLSRDFSSQPS
With B1 the “stoichiometry N” value was 1.
